Data on one molecule can be found in patent US20220033512A1 (University of California, published 2022).

Assay [1] has as its target T1, human ENPP1, full length, over-expressed on HEK cells (human, UniProt P22413 1-925).
T1 construct: whole, on cells
T1 sequence (looked up): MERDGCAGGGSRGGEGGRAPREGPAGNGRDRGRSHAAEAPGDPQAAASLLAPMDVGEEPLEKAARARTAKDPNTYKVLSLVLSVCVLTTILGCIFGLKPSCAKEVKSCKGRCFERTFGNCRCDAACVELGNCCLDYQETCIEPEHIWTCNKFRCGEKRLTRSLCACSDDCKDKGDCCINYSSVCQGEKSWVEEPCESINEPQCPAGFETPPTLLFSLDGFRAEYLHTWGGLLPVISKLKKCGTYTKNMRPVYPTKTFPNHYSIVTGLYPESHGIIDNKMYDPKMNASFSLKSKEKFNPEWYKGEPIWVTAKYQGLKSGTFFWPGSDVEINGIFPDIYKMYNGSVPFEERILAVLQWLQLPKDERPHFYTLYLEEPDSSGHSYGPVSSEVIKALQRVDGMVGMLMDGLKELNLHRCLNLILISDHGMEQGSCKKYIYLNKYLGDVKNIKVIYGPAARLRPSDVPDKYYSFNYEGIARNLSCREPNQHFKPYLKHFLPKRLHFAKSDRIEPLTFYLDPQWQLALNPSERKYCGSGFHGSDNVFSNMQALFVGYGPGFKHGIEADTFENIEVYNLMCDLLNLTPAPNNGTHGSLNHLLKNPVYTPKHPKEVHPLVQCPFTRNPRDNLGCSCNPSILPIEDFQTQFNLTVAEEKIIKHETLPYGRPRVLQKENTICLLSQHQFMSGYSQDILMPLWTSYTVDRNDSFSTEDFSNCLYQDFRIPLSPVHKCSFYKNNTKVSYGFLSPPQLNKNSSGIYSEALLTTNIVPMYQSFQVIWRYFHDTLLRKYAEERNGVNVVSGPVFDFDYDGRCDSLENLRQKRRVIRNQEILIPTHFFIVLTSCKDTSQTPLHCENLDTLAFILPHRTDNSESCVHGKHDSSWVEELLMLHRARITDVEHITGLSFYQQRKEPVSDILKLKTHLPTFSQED
The assay can be described thus: flow cytometry (mean fluorescence intensity) on HEK cells over-expressing full length human ENPP1. On the technique in general: In flow cytometry, cells or beads pass a laser one at a time.

Assay [2] concerns the target T1, human ENPP1, full length, …. The assay can be described thus: flow cytometry (mean fluorescence intensity) on HEK cells over-expressing full length ENPP1, varying mAb concentrations, fitted in Graph Pad Prism.

B1: 12-J-4 ENPP1 monoclonal antibody (antibody, V domains shown)
VH: EVMLVESGGGLVKPGGSLKLSCVASGFTFSSYTMSWVRQTPEKRLEWVATISGGGGNTYYPDSVKGRFTISRDNAKNTLYLQMSSLRSEDTALYYCARRHYGSSPYAMDYWGQGTSVTVSS
VL: DIQMTQTTSSLSASLGDRVTISCRASQDISNYLNWYQQKPDGTVKLLIYHKTRLHSGVPSRFSGSGSGTDYSLTISNLEQEDIATYFCQQGNMLPWTFGGGTKLEIK
notes: The antibody is a recombinant IgG1kappa made in a CHO cell line, from a hybridoma raised against human recombinant ENPP1; Heavy chain about 48 kD, light chain about 24 kD; also called ENPP1 mAb; ENPP1mAb
With B1, the “EC50 (read off the curve)” value in assay [1] was about 4 nM. For the same molecule, in assay [2], the dissociation constant Kd came to 3.52 nM.

In general, EC50 (read off the curve) refers to the concentration that produces a half-maximal response. In general, Kd refers to the free concentration of one partner at which half of the binding sites on the other are occupied at equilibrium, for simple one-to-one binding. Low readings indicate tighter binding, high ones weaker binding.
